These results are taken from PMC10953043, “Fluorogenic Granzyme A Substrates Enable Real‐Time Imaging of Adaptive Immune Cell Activity” (Angewandte Chemie (Weinheim an Der Bergstrasse, Germany), 2023).

Substrate in the series: CC[C@H](C)[C@H](NC(C)=O)C(=O)NCC(=O)N[C@@H](CC(N)=O)C(=O)N[C@@H](CCCNC(=N)N)C(=O)Nc1ccc(COc2ccc3c(c2)OC2=C(/C=C/C4=[N+](C)c5ccccc5C4(C)C)CCCC2=C3)cc1
The series is described as follows: fluorogenic NIR assay, Michaelis-Menten fit. The note with it: Tris buffer pH 8, 37 °C, 20 nM hGzmA, cleaved after Arg. The format is biochemical, Homo sapiens.

As a reminder, the kcat is the number of substrate molecules converted per active site and unit of time at saturation.

B1: human GzmA (hGzmA), active recombinant (Homo sapiens) (protein)
chain: IIGGNEVTPHSRPYMVLLSLDRKTICAGALIAKDWVLTAAHCNLNKRSQVILGAHSITREEPTKQIMLVKKEFPYPCYDPATREGDLKLLQLMEKAKINKYVTILHLPKKGDDVKPGTMCQVAGWGRTHNSASWSDTLREVNITIIDRKVCNDRNHYNFNPVIGMNMVCAGSLRGGRDSCNGDSGSPLLCEGVFRGVTSFGLENKCGDPRGPGVYILLSKKHLNWIIMTIKGAV
notes: active recombinant enzyme (not the pro-form), dimeric
Turning to B1, the Km is 6.9±1.0×10^-6 M and the kcat worked out at 0.26 ± 0.04 s⁻¹.
